Results published in IntAct's records for PubMed 26977880.

B1: Tumor necrosis factor ligand superfamily member 14 (Homo sapiens), O43557 (parent)
chain: MEESVVRPSVFVVDGQTDIPFTRLGRSHRRQSCSVARVGLGLLLLLMGAGLAVQGWFLLQLHWRLGEMVTRLPDGPAGSWEQLIQERRSHEVNPAAHLTGANSSLTGSGGPLLWETQLGLAFLRGLSYHDGALVVTKAGYYYIYSKVQLGGVGCPLGLASTITHGLYKRTPRYPEELELLVSQQSPCGRATSSSRVWWDSSFLGGVVHLEAGEKVVVRVLDERLVRLRDGTRSYFGAFMV

Variants of: B1
Conditions: with tnr3_mouse Ltbr

effect of a mutation on the interaction	Variant
causing an interaction	MEESVVRPSVFVVDGQTDIPFTRLGRSHRRQSCSVARVGLGLLLLLMGAGLAVQGWFLLQLHWRLGEMVTRLPDGPAGSWEQLIQERRSHEVNPAAHLTGANSSLTGSGGPLLWETQLGLAFLRGLSYHDGALVVTKTGYYYIYSKVQLGGVGCPLGLAGTITHGLYKRTPRYPEELELLVSQQSPCGRATSSSRVWWDSSFLGGVVHLEAGEKVVVRVLGKRLVRLRDGTRSYFGAFMV [A138T;S160G;D221G;E222K]
